Reference: US20200069775A1, “BRAIN OSTEOCALCIN RECEPTOR AND COGNITIVE DISORDERS” (The Trustees of Columbia University in the City of New York, priority 2017, published 2020)

Biological target: T1, Gpr158 (Mus musculus, UniProt Q8C419)
T1 sequence (Q8C419 25-1200): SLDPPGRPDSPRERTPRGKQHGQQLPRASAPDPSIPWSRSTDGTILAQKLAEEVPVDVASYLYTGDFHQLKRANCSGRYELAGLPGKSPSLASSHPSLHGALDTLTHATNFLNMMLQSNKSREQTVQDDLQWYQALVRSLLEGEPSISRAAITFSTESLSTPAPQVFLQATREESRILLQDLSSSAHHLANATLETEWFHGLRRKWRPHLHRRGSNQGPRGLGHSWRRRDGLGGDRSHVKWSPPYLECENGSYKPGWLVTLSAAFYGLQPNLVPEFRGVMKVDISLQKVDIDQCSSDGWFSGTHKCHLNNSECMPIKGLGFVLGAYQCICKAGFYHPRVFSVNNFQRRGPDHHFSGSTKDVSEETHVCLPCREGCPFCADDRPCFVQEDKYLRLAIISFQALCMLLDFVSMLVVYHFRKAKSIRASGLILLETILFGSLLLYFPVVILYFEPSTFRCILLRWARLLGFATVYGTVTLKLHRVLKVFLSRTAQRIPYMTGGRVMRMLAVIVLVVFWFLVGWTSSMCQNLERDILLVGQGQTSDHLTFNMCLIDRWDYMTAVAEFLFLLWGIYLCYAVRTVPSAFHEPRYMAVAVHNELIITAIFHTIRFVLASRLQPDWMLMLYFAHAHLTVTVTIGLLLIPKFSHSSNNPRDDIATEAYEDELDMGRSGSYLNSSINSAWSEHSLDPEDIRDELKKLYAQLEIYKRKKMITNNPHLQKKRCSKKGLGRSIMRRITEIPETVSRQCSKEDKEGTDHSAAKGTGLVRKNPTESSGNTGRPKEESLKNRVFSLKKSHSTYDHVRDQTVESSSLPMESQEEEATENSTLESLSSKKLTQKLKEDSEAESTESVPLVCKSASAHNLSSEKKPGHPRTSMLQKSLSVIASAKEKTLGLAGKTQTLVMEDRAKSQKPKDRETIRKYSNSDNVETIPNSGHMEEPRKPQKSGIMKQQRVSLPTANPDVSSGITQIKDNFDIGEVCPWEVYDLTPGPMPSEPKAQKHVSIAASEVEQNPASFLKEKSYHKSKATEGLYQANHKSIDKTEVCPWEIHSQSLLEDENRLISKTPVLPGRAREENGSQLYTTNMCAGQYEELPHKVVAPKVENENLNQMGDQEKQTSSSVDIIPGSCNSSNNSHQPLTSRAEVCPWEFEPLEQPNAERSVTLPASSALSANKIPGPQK
Test: Bdnf expression (qPCR) in WT and Gpr158−/− hippocampal neurons
Format: cell-based
Design: visually identified pyramidal neurons in the CA3 area of the hippocampus; from tissue; host or cells: coronal hippocampal slices of 3-4 week old male WT and Gpr158-/- mice
Settings: WT vs Gpr158−/− hippocampal neurons, 4 hours
Protocol: FIG. 15. Function analysis of Osteocalcin signaling through Gpr158. (Panel a) IP1 accumulation in WT and Gpr158−/− hippocampal neurons (DIV 15) treated with either vehicle or osteocalcin for 1 hour. Glutamate was used as a positive control. (Panel b) Expression (qPCR) of Th and Bdnf in the midbrain of 6 month-old Gpr158+/− and WT littermates. (Panel c) Expression (qPCR) of Bdnf in WT and Gpr158−/− hippocampal neurons (DIV 15) treated with either vehicle or osteocalcin for 4 hours. (Panel d) Osteocalcin's effect on spontaneous action potential (AP) frequency in CA3 pyramidal neurons in WT (4 of 4 cells) and Gpr158−/− mice. The bars above the recording traces indicate the application of osteocalcin. […] Number of entries and time spent (s) in the open arms were scored. […] Time spent in the lit compartment and open arms was measured. […] Total ambulation (cm) and time spent in the center of the arena (s) were measured. […] Preference index (time spent with novel object/total exploration time) was measured. […] Preference index (time spent with novel object/total exploration time) was measured. […] Percent freezing 24 hours after training was measured. […]
RNA was isolated from brain tissue using TRIZOL (Invitrogen). cDNA synthesis was performed following standard protocol, q-PCR analyses were done using specific quantitative PCR primers (sequences available upon request), and expressed relative to Gapdh levels. […]

**Q.** With “osteocalcin: Recombinant osteocalcin bacterially produced, cleaved from the GST subunit; completely undercarboxylated at all three sites; full-length mouse osteocalcin (YLGASVPSPDPLEPTREQCELNPACDELSDQYGLKTAYKRIYGITI)” as the substance, how does the Bdnf expression read?
**A.** increased Bdnf expression in WT significantly more than in Gpr158−/− hippocampal neurons
